The MegaScale stability set (Tsuboyama et al. 2023)

B1: 5KPH (parent)
chain: EEKRQVKQVAKEKLLEQSPNSKVQVRRVQKQGNTIRVELELRTNGKKENYTVEVERQGNTWTVKRITRT

Variants of: B1
Assay: folding stability dG (cDNA display proteolysis); higher = more stable
Settings: PBS, room temperature

Row | Variant | folding stability dG
1 | EEKRQVKQVAKEKLLEQSPNSKVQVRRVQKQGNTIRVELELRTNGKKENVTVEVERQGNTWTVKRITRT [Y50V] | 3.56 kcal/mol
2 | EEKRQVKQVAKEKLLEQSPNSKVQVRRVQKQGNTIRVELELRTNGKKENGTVEVERQGNTWTVKRITRT [Y50G] | 0.705 kcal/mol
3 | EEKRQVKQVAKEKLLEQSPNSKVQVRRVQKQGNTIRVELELRTNGKKENTTVEVERQGNTWTVKRITRT [Y50T] | 1.47 kcal/mol
4 | EEKRQVKQVAKEKLLEQSPNSKVQVRRVQKQGNTIRVELELRTNGKKENETVEVERQGNTWTVKRITRT [Y50E] | -0.081 kcal/mol
5 | EEKRQVKQVAKEKLLEQSPNSKVQVRRVQKQGNTIRVELELRTNGKKENSTVEVERQGNTWTVKRITRT [Y50S] | 1.25 kcal/mol
6 | EEKRQVKQVAKEKLLEQSPNSKVQVRRVQKQGNTIRVELELRTNGKKENNTVEVERQGNTWTVKRITRT [Y50N] | 0.663 kcal/mol
7 | EEKRQVKQVAKEKLLEQSPNSKVQVRRVQKQGNTIRVELELRTNGKKENCTVEVERQGNTWTVKRITRT [Y50C] | 2.79 kcal/mol
8 | EEKRQVKQVAKEKLLEQSPNSKVQVRRVQKQGNTIRVELELRTNGKKENLTVEVERQGNTWTVKRITRT [Y50L] | 2.84 kcal/mol
9 | EEKRQVKQVAKEKLLEQSPNSKVQVRRVQKQGNTIRVELELRTNGKKENPTVEVERQGNTWTVKRITRT [Y50P] | -0.674 kcal/mol
10 | EEKRQVKQVAKEKLLEQSPNSKVQVRRVQKQGNTIRVELELRTNGKKENATVEVERQGNTWTVKRITRT [Y50A] | 2.98 kcal/mol
11 | EEKRQVKQVAKEKLLEQSPNSKVQVRRVQKQGNTIRVELELRTNGKKENRTVEVERQGNTWTVKRITRT [Y50R] | 1.2 kcal/mol
12 | EEKRQVKQVAKEKLLEQSPNSKVQVRRVQKQGNTIRVELELRTNGKKENHTVEVERQGNTWTVKRITRT [Y50H] | 2.1 kcal/mol
13 | EEKRQVKQVAKEKLLEQSPNSKVQVRRVQKQGNTIRVELELRTNGKKENITVEVERQGNTWTVKRITRT [Y50I] | 3.17 kcal/mol
14 | EEKRQVKQVAKEKLLEQSPNSKVQVRRVQKQGNTIRVELELRTNGKKENQTVEVERQGNTWTVKRITRT [Y50Q] | 1.33 kcal/mol
15 | EEKRQVKQVAKEKLLEQSPNSKVQVRRVQKQGNTIRVELELRTNGKKENMTVEVERQGNTWTVKRITRT [Y50M] | 2.58 kcal/mol
16 | EEKRQVKQVAKEKLLEQSPNSKVQVRRVQKQGNTIRVELELRTNGKKENKTVEVERQGNTWTVKRITRT [Y50K] | 1.24 kcal/mol
17 | EEKRQVKQVAKEKLLEQSPNSKVQVRRVQKQGNTIRVELELRTNGKKENFTVEVERQGNTWTVKRITRT [Y50F] | 3.74 kcal/mol
18 | EEKRQVKQVAKEKLLEQSPNSKVQVRRVQKQGNTIRVELELRTNGKKENWTVEVERQGNTWTVKRITRT [Y50W] | 4.12 kcal/mol
19 | EEKRQVKQVAKEKLLEQSPNSKVQVRRVQKQGNTIRVELELRTNGKKYNYTVEVERQGNTWTVKRITRT [E48Y] | 3.75 kcal/mol
20 | EEKRQVKQVAKEKLLEQSPNSKVQVRRVQKQGNTIRVELELRTNGKKSNYTVEVERQGNTWTVKRITRT [E48S] | 3.57 kcal/mol
21 | EEKRQVKQVAKEKLLEQSPNSKVQVRRVQKQGNTIRVELELRTNGKKVNYTVEVERQGNTWTVKRITRT [E48V] | 3.63 kcal/mol
22 | EEKRQVKQVAKEKLLEQSPNSKVQVRRVQKQGNTIRVELELRTNGKKTNYTVEVERQGNTWTVKRITRT [E48T] | 3.65 kcal/mol
23 | EEKRQVKQVAKEKLLEQSPNSKVQVRRVQKQGNTIRVELELRTNGKKWNYTVEVERQGNTWTVKRITRT [E48W] | 3.87 kcal/mol
24 | EEKRQVKQVAKEKLLEQSPNSKVQVRRVQKQGNTIRVELELRTNGKKQNYTVEVERQGNTWTVKRITRT [E48Q] | 3.7 kcal/mol
25 | EEKRQVKQVAKEKLLEQSPNSKVQVRRVQKQGNTIRVELELRTNGKKNNYTVEVERQGNTWTVKRITRT [E48N] | 3.08 kcal/mol
26 | EEKRQVKQVAKEKLLEQSPNSKVQVRRVQKQGNTIRVELELRTNGKKMNYTVEVERQGNTWTVKRITRT [E48M] | 3.55 kcal/mol

Row | Variant | folding stability dG
27 | EEKRQVKQVAKEKLLEQSPNSKVQVRRVQKQGNTIRVELELRTNGKKPNYTVEVERQGNTWTVKRITRT [E48P] | 1.23 kcal/mol
28 | EEKRQVKQVAKEKLLEQSPNSKVQVRRVQKQGNTIRVELELRTNGKKRNYTVEVERQGNTWTVKRITRT [E48R] | 3.35 kcal/mol
29 | EEKRQVKQVAKEKLLEQSPNSKVQVRRVQKQGNTIRVELELRTNGKKINYTVEVERQGNTWTVKRITRT [E48I] | 3.52 kcal/mol
30 | EEKRQVKQVAKEKLLEQSPNSKVQVRRVQKQGNTIRVELELRTNGKKCNYTVEVERQGNTWTVKRITRT [E48C] | 3.38 kcal/mol
31 | EEKRQVKQVAKEKLLEQSPNSKVQVRRVQKQGNTIRVELELRTNGKKLNYTVEVERQGNTWTVKRITRT [E48L] | 3.39 kcal/mol
32 | EEKRQVKQVAKEKLLEQSPNSKVQVRRVQKQGNTIRVELELRTNGKKHNYTVEVERQGNTWTVKRITRT [E48H] | 3.34 kcal/mol
33 | EEKRQVKQVAKEKLLEQSPNSKVQVRRVQKQGNTIRVELELRTNGKKKNYTVEVERQGNTWTVKRITRT [E48K] | 3.22 kcal/mol
34 | EEKRQVKQVAKEKLLEQSPNSKVQVRRVQKQGNTIRVELELRTNGKKANYTVEVERQGNTWTVKRITRT [E48A] | 3.58 kcal/mol
35 | EEKRQVKQVAKEKLLEQSPNSKVQVRRVQKQGNTIRVELELRTNGKKFNYTVEVERQGNTWTVKRITRT [E48F] | 3.57 kcal/mol
36 | EEKRQVKQVAKEKLLEQSPNSKVQVRRVQKQGNTIRVELELRTNGKKDNYTVEVERQGNTWTVKRITRT [E48D] | 3.35 kcal/mol
37 | EEKRQVKQVAKEKLLEQSPNSKVQVRRVQKQGNTIRVELELRTNGKKGNYTVEVERQGNTWTVKRITRT [E48G] | 2.67 kcal/mol
38 | EEKRQVKQVAKEKLLEQSPNSKVQVRRVQKQGNTIRVELELRTNGKKEKYTVEVERQGNTWTVKRITRT [N49K] | 4.23 kcal/mol
39 | EEKRQVKQVAKEKLLEQSPNSKVQVRRVQKQGNTIRVELELRTNGKKEAYTVEVERQGNTWTVKRITRT [N49A] | 3.73 kcal/mol
40 | EEKRQVKQVAKEKLLEQSPNSKVQVRRVQKQGNTIRVELELRTNGKKEHYTVEVERQGNTWTVKRITRT [N49H] | 4.04 kcal/mol
41 | EEKRQVKQVAKEKLLEQSPNSKVQVRRVQKQGNTIRVELELRTNGKKEMYTVEVERQGNTWTVKRITRT [N49M] | 4.18 kcal/mol
42 | EEKRQVKQVAKEKLLEQSPNSKVQVRRVQKQGNTIRVELELRTNGKKELYTVEVERQGNTWTVKRITRT [N49L] | 4.4 kcal/mol
43 | EEKRQVKQVAKEKLLEQSPNSKVQVRRVQKQGNTIRVELELRTNGKKERYTVEVERQGNTWTVKRITRT [N49R] | 4.09 kcal/mol
44 | EEKRQVKQVAKEKLLEQSPNSKVQVRRVQKQGNTIRVELELRTNGKKEVYTVEVERQGNTWTVKRITRT [N49V] | 4.07 kcal/mol
45 | EEKRQVKQVAKEKLLEQSPNSKVQVRRVQKQGNTIRVELELRTNGKKEIYTVEVERQGNTWTVKRITRT [N49I] | 4.22 kcal/mol
46 | EEKRQVKQVAKEKLLEQSPNSKVQVRRVQKQGNTIRVELELRTNGKKEYYTVEVERQGNTWTVKRITRT [N49Y] | 4.3 kcal/mol
47 | EEKRQVKQVAKEKLLEQSPNSKVQVRRVQKQGNTIRVELELRTNGKKECYTVEVERQGNTWTVKRITRT [N49C] | 3.73 kcal/mol
48 | EEKRQVKQVAKEKLLEQSPNSKVQVRRVQKQGNTIRVELELRTNGKKEFYTVEVERQGNTWTVKRITRT [N49F] | 4.14 kcal/mol
49 | EEKRQVKQVAKEKLLEQSPNSKVQVRRVQKQGNTIRVELELRTNGKKEDYTVEVERQGNTWTVKRITRT [N49D] | 3.57 kcal/mol
50 | EEKRQVKQVAKEKLLEQSPNSKVQVRRVQKQGNTIRVELELRTNGKKEGYTVEVERQGNTWTVKRITRT [N49G] | 3.81 kcal/mol
51 | EEKRQVKQVAKEKLLEQSPNSKVQVRRVQKQGNTIRVELELRTNGKKEPYTVEVERQGNTWTVKRITRT [N49P] | 2.7 kcal/mol
52 | EEKRQVKQVAKEKLLEQSPNSKVQVRRVQKQGNTIRVELELRTNGKKEEYTVEVERQGNTWTVKRITRT [N49E] | 3.61 kcal/mol

Row | Variant | folding stability dG
53 | EEKRQVKQVAKEKLLEQSPNSKVQVRRVQKQGNTIRVELELRTNGKKETYTVEVERQGNTWTVKRITRT [N49T] | 4.14 kcal/mol
54 | EEKRQVKQVAKEKLLEQSPNSKVQVRRVQKQGNTIRVELELRTNGKKESYTVEVERQGNTWTVKRITRT [N49S] | 3.86 kcal/mol
55 | EEKRQVKQVAKEKLLEQSPNSKVQVRRVQKQGNTIRVELELRTNGKKEQYTVEVERQGNTWTVKRITRT [N49Q] | 3.93 kcal/mol
56 | EEKRQVKQVAKEKLLEQSPNSKVQVRRVQKQGNTIRVELELRTNGKKEWYTVEVERQGNTWTVKRITRT [N49W] | 4.2 kcal/mol
57 | EEKRQVKQVAKEKLLEQSPNSKVQVRRVQKQGNTIRVELELRTNGKKENYAVEVERQGNTWTVKRITRT [T51A] | 3.6 kcal/mol
58 | EEKRQVKQVAKEKLLEQSPNSKVQVRRVQKQGNTIRVELELRTNGKKENYDVEVERQGNTWTVKRITRT [T51D] | 3.01 kcal/mol
59 | EEKRQVKQVAKEKLLEQSPNSKVQVRRVQKQGNTIRVELELRTNGKKENYCVEVERQGNTWTVKRITRT [T51C] | 3.59 kcal/mol
60 | EEKRQVKQVAKEKLLEQSPNSKVQVRRVQKQGNTIRVELELRTNGKFENYTVEVERQGNTWTVKRITRT [K47F] | 3.86 kcal/mol
61 | EEKRQVKQVAKEKLLEQSPNSKVQVRRVQKQGNTIRVELELRTNGKRENYTVEVERQGNTWTVKRITRT [K47R] | 4.02 kcal/mol
62 | EEKRQVKQVAKEKLLEQSPNSKVQVRRVQKQGNTIRVELELRTNGKWENYTVEVERQGNTWTVKRITRT [K47W] | 3.75 kcal/mol
63 | EEKRQVKQVAKEKLLEQSPNSKVQVRRVQKQGNTIRVELELRTNGKYENYTVEVERQGNTWTVKRITRT [K47Y] | 3.8 kcal/mol
64 | EEKRQVKQVAKEKLLEQSPNSKVQVRRVQKQGNTIRVELELRTNGKDENYTVEVERQGNTWTVKRITRT [K47D] | 2.91 kcal/mol
65 | EEKRQVKQVAKEKLLEQSPNSKVQVRRVQKQGNTIRVELELRTNGKSENYTVEVERQGNTWTVKRITRT [K47S] | 3.92 kcal/mol
66 | EEKRQVKQVAKEKLLEQSPNSKVQVRRVQKQGNTIRVELELRTNGKPENYTVEVERQGNTWTVKRITRT [K47P] | 3.31 kcal/mol
67 | EEKRQVKQVAKEKLLEQSPNSKVQVRRVQKQGNTIRVELELRTNGKCENYTVEVERQGNTWTVKRITRT [K47C] | 3.64 kcal/mol
68 | EEKRQVKQVAKEKLLEQSPNSKVQVRRVQKQGNTIRVELELRTNGKLENYTVEVERQGNTWTVKRITRT [K47L] | 4.04 kcal/mol
69 | EEKRQVKQVAKEKLLEQSPNSKVQVRRVQKQGNTIRVELELRTNGKVENYTVEVERQGNTWTVKRITRT [K47V] | 4.06 kcal/mol
70 | EEKRQVKQVAKEKLLEQSPNSKVQVRRVQKQGNTIRVELELRTNGKTENYTVEVERQGNTWTVKRITRT [K47T] | 4.05 kcal/mol
71 | EEKRQVKQVAKEKLLEQSPNSKVQVRRVQKQGNTIRVELELRTNGKEENYTVEVERQGNTWTVKRITRT [K47E] | 3.13 kcal/mol
72 | EEKRQVKQVAKEKLLEQSPNSKVQVRRVQKQGNTIRVELELRTNGKMENYTVEVERQGNTWTVKRITRT [K47M] | 3.77 kcal/mol
73 | EEKRQVKQVAKEKLLEQSPNSKVQVRRVQKQGNTIRVELELRTNGKQENYTVEVERQGNTWTVKRITRT [K47Q] | 3.64 kcal/mol
74 | EEKRQVKQVAKEKLLEQSPNSKVQVRRVQKQGNTIRVELELRTNGKNENYTVEVERQGNTWTVKRITRT [K47N] | 3.59 kcal/mol
75 | EEKRQVKQVAKEKLLEQSPNSKVQVRRVQKQGNTIRVELELRTNGKGENYTVEVERQGNTWTVKRITRT [K47G] | 3.03 kcal/mol
76 | EEKRQVKQVAKEKLLEQSPNSKVQVRRVQKQGNTIRVELELRTNGKAENYTVEVERQGNTWTVKRITRT [K47A] | 3.71 kcal/mol
77 | EEKRQVKQVAKEKLLEQSPNSKVQVRRVQKQGNTIRVELELRTNGKHENYTVEVERQGNTWTVKRITRT [K47H] | 3.94 kcal/mol
78 | EEKRQVKQVAKEKLLEQSPNSKVQVRRVQKQGNTIRVELELRTNGKIENYTVEVERQGNTWTVKRITRT [K47I] | 4.14 kcal/mol
